Assay results published in patent US20250283117, “RNA-GUIDED NUCLEASES AND ACTIVE FRAGMENTS AND VARIANTS THEREOF AND METHODS OF USE” (Life Edit Therapeutics, Inc., published 2025).

T1: APG07433.1 (Bacillus sp.)
T1 sequence: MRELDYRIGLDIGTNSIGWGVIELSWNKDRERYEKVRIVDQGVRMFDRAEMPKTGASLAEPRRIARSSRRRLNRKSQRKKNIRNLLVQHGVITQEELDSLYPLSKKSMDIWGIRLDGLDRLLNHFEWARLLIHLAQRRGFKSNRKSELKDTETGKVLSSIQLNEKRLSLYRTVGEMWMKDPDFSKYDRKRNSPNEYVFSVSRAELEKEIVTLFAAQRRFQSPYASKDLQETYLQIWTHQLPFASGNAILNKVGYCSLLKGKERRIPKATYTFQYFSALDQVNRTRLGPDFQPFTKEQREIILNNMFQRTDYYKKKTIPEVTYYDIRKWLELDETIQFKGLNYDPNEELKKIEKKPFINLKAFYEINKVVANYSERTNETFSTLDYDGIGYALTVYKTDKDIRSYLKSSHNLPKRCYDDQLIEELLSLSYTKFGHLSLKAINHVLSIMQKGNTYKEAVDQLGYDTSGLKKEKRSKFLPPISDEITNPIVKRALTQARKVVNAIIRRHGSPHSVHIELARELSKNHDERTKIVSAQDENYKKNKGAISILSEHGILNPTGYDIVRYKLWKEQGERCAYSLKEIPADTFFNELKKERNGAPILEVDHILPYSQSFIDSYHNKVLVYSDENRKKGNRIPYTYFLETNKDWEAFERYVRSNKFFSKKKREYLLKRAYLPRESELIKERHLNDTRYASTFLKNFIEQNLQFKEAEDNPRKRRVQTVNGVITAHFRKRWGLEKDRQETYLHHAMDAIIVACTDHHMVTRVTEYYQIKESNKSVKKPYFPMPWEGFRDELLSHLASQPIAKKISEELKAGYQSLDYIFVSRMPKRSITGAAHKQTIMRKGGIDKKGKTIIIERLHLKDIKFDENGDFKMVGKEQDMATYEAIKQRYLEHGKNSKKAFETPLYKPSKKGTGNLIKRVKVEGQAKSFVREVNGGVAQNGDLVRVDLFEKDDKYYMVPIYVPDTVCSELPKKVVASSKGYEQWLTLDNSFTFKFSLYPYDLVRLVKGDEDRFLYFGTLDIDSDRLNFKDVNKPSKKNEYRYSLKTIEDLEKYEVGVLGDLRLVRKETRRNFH

T2: APG07513.1 (Bacillus sp.)
T2 chain: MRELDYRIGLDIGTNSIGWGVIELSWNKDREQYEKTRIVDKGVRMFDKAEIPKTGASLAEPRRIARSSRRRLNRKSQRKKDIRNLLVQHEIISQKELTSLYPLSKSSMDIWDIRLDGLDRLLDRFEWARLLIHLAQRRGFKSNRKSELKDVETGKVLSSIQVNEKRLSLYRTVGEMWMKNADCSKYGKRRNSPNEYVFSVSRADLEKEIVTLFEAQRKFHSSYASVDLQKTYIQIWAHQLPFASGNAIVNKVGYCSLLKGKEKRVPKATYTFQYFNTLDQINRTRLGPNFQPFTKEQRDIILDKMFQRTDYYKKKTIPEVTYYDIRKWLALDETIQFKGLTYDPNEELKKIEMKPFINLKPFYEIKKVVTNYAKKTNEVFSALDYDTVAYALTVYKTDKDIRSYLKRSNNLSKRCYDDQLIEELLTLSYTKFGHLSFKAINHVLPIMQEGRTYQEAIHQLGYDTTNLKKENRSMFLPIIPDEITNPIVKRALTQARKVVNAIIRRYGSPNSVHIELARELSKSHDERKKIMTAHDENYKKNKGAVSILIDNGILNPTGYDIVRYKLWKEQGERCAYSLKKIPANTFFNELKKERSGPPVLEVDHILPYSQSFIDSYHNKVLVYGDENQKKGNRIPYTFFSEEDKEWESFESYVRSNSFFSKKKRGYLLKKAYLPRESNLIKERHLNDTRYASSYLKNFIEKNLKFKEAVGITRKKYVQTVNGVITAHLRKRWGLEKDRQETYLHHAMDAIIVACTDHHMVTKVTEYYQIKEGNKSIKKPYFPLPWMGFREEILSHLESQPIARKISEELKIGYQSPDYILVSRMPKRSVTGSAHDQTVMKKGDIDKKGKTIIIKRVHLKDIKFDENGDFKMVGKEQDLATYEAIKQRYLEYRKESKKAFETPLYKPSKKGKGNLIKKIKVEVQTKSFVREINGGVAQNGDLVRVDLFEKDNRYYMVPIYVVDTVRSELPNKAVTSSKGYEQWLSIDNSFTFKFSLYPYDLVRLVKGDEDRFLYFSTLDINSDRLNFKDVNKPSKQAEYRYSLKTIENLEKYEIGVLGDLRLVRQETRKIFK

T3: APG07433.1 (Bacillus sp.)
T3 chain: T1 sequence

B1: Guide 144 ; AurkB target of guide 144 (ssRNA ; dsDNA)
RNA: CAUGGCAGUACAUUAGAGCAGUCAUAGUUCCAUUAAAGCCAUUGCUGAAAGACAGCAAUGGCUUUGAUGUUUCUAUGAUAAGGGCUUCGGCCCGUGGCGUUGGGGAUCGCCUGCCCAUUUUAAUGGGCUUCUCCCCAUCUAUUU
DNA 1: CATGGCAGTACATTAGAGCA
DNA 2: TGCTCTAATGTACTGCCATG
B2: Guide 136 ; AurkB target of guide 136 (ssRNA ; dsDNA)
RNA: GGGCCAUUAAAACCUCUCCAGUCAUAGUUCCAUUAAAGCCAUUGCUGAAAGACAGCAAUGGCUUUGAUGUUUCUAUGAUAAGGGCUUCGGCCCGUGGCGUUGGGGAUCGCCUGCCCAUUUUAAUGGGCUUCUCCCCAUCUAUUU
DNA 1: GGGCCATTAAAACCTCTCCA
DNA 2: TGGAGAGGTTTTAATGGCCC
B3: Guide 173 ; HPRT1 target of guide 173 (ssRNA ; dsDNA)
RNA: CUUCUAUAGCCUCCUUCCCCGUCAUAGUUCCAUUAAAGCCAAAAGUGGCUUUGAUGUUUCUAUGAUAAGGGUUUCGACCCGUGGCGUCGGGGAUCGCCUGCCCAUUGAAAUGGGCUUCUCCCCAUUUAUU
DNA 1: CTTCTATAGCCTCCTTCCCC
DNA 2: GGGGAAGGAGGCTATAGAAG

How the values were obtained:
[1] = tested on: T1, APG07433.1 (Bacillus sp.); experiment: cleavage_in_vitro; conditions: PAM NNNNCC; NTS cut 4, TS cut 3, 1 nt 5' overhang (Table 3)
APG07513.1 = molecular target: T2, APG07513.1; experiment: cell_activity; HEK293T; PAM NNNNCC; conditions: tags: E. coli pRSF-1b expression; human cells: N-term SV40 NLS and 3xFLAG, C-term nucleoplasmin NLS
Procedure: (§1) The constructs described above were introduced into mammalian cells. One day prior to transfection, 1×10⁵ HEK293T cells/well (Sigma) were plated in 24-well dishes in Dulbecco's modified Eagle medium (DMEM) plus 10% (vol/vol) fetal bovine serum (Gibco) and 1% Penicillin-Streptomycin (Gibco). The next day when the cells were at 50-60% confluency, 500 ng of a RGN expression plasmid plus 500 ng of a single gRNA expression plasmid were co-transfected using […] of Lipofectamine 3000 (Thermo Scientific) per well, following the manufacturer's instructions. After 48 hours of growth, total genomic DNA was harvested using a genomic DNA isolation kit (Machery-Nagel) according to the manufacturer's instructions.
(§2) Additionally, products from PCR #2 containing Illumina overhang sequences underwent library preparation following the Illumina 16S Metagenomic Sequencing Library protocol. Deep sequencing was performed on an Illumina Mi-Seq platform by a service provider (MOGene). Typically 200,000 of 250 bp paired-end reads (2×100,000 reads) are generated per amplicon. The reads were analyzed using CRISPResso (Pinello, et al. 2016 Nature Biotech, 34:695-697) to calculate the rates of editing. Output alignments were hand-curated to confirm insertion and deletion sites as well as identify microhomology sites at the recombination sites. All experiments were performed in human cells. The “target sequence” is the targeted sequence within the gene target. For each target sequence, the guide RNA comprised the complementary RNA target sequence and the appropriate sgRNA depending on the RGN used.

APG07433.1 = molecular target: T3, APG07433.1; experiment: cell_activity; HEK293T; PAM NNNNCC; conditions: tags: human cells: N-term SV40 NLS and 3xFLAG, C-term nucleoplasmin NLS
Procedure: as §1, §2

| Molecule | activity (APG07513.1) | other results |
| --- | --- | --- |
| GAGCGGACAGCAGCUUCCUAUAUCUCGUACNNNNNNNNNNNNNNNNNNNNNNNNNGUCAUAGUUCCAUUAAAGCCAAAAGUGGCUUUGAUGUUUCUAUGAUAAGGGUUUCGACCCGUGGCGUCGGGGAUCGCCUGCCCAUUGAAAUGGGCUUCUCCCCAUUUAUU / GAGCGGACAGCAGCTTCCTATATCTCGTAC / GTACGAGATATAGGAAGCTGCTGTCCGCTC [Sequence 1 sgRNA for APG07433.1 ; Sequence 1 target] |  | activity [1]: 86 % cleaved |
| B1 | 2.4 % editing |  |
| B2 | 0.9 % editing |  |
| B3 |  | activity (APG07433.1): 26.6 % editing |
